Data from article PMC11203824.

T1: EGFP-Arc (EGFP tag at the N-terminus), expressed in U2OS cells (mouse), Q9WV31
T1 chain: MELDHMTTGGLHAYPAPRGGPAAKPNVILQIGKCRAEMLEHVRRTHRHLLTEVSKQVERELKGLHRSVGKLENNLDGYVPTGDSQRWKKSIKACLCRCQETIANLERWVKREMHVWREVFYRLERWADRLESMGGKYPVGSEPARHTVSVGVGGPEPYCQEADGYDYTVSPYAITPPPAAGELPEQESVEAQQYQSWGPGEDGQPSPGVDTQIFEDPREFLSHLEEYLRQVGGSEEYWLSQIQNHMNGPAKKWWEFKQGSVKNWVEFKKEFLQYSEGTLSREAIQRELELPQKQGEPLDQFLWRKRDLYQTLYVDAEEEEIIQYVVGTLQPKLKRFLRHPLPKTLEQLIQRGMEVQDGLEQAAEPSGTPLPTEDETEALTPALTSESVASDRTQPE

T2: Arc-EGFP (EGFP tag at the C-terminus), expressed in U2OS cells (mouse), Q9WV31
T2 chain: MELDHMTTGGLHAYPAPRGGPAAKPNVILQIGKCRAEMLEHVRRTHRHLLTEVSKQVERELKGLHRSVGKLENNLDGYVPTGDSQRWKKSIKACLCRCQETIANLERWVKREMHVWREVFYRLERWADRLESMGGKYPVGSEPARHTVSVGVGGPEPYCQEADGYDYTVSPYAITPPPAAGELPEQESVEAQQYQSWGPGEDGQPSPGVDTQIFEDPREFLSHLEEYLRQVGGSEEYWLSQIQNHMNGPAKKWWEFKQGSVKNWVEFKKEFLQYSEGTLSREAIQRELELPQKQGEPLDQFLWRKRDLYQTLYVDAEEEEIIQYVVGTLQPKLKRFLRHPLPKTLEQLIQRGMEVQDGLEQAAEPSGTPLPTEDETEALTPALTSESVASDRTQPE


Key:
[1] = target: T1, EGFP-Arc (EGFP tag at the N-terminus), …; test: fluorescence fluctuation spectroscopy (brightness analysis); single-point FFS in the cytoplasm of living U2OS cells, ~200 nM to ~5 µM EGFP-tagged Arc; normalized brightness b against EGFP alone gives the average stoichiometry; conditions: remark: other sources report otherwise
[2] = target: T2, Arc-EGFP (EGFP tag at the C-terminus), …; test: as above; conditions: remark: other sources report otherwise

Binder	stoichiometry N (Arc molecules per particle) [1]	stoichiometry N (Arc molecules per particle) [2]
EGFP-Arc (EGFP tag at the N-terminus), expressed in U2OS cells, Q9WV31 1-396 (natural protein) MELDHMTTGGLHAYPAPRGGPAAKPNVILQIGKCRAEMLEHVRRTHRHLLTEVSKQVERELKGLHRSVGKLENNLDGYVPTGDSQRWKKSIKACLCRCQETIANLERWVKREMHVWREVFYRLERWADRLESMGGKYPVGSEPARHTVSVGVGGPEPYCQEADGYDYTVSPYAITPPPAAGELPEQESVEAQQYQSWGPGEDGQPSPGVDTQIFEDPREFLSHLEEYLRQVGGSEEYWLSQIQNHMNGPAKKWWEFKQGSVKNWVEFKKEFLQYSEGTLSREAIQRELELPQKQGEPLDQFLWRKRDLYQTLYVDAEEEEIIQYVVGTLQPKLKRFLRHPLPKTLEQLIQRGMEVQDGLEQAAEPSGTPLPTEDETEALTPALTSESVASDRTQPE	1 to 3	–
Arc-EGFP (EGFP tag at the C-terminus), expressed in U2OS cells, Q9WV31 1-396 (natural protein) MELDHMTTGGLHAYPAPRGGPAAKPNVILQIGKCRAEMLEHVRRTHRHLLTEVSKQVERELKGLHRSVGKLENNLDGYVPTGDSQRWKKSIKACLCRCQETIANLERWVKREMHVWREVFYRLERWADRLESMGGKYPVGSEPARHTVSVGVGGPEPYCQEADGYDYTVSPYAITPPPAAGELPEQESVEAQQYQSWGPGEDGQPSPGVDTQIFEDPREFLSHLEEYLRQVGGSEEYWLSQIQNHMNGPAKKWWEFKQGSVKNWVEFKKEFLQYSEGTLSREAIQRELELPQKQGEPLDQFLWRKRDLYQTLYVDAEEEEIIQYVVGTLQPKLKRFLRHPLPKTLEQLIQRGMEVQDGLEQAAEPSGTPLPTEDETEALTPALTSESVASDRTQPE	–	1 to 3
